Like-named read-outs stand apart in the source and are kept apart here.

This passage reports Kd results from doi:10.1101/509141.

Common to all, as to experiment: BLI
In assay [1] the target is Bacteriophage Sf6, whole virions (bacteriophage Sf6).
The target is the same in assay [2]. This is another data set of the same source.
For assay [3] the target is unchanged. This is another data set of the same source.
Assay [4] shares this target. The source holds these as a separate data set.

One may read the Kd as the free concentration of one partner at which half of the binding sites on the other are occupied at equilibrium, for simple one-to-one binding. The low end stands for higher affinity, the high end for lower affinity. Regarding “S. flexneri OmpA-TM N155E (domain or fragment)”, the Kd in assay [1] lay within 0.0069 to 0.0654 µM.
Turning to “OmpA-TM_(S.flex), transmembrane domain of S. flexneri outer membrane protein A (domain or fragment)”, the Kd in assay [2] was 0.0899 µM; in assay [3], 0.0996 µM; in assay [1] it was 0.036 µM; in assay [4], 0.0823 µM.
“OmpA-TM_(E.coli), transmembrane domain of E. coli outer membrane protein A (domain or fragment)” registered a Kd in assay [1] of 0.025 µM. This lies in the double-digit nanomolar range.
